# Earlier results as cited in patent US7759315B2, “Treatment of inflammatory conditions of the intestine” (CSL Behring AG, priority 2005, dated 2010).
# Non-standard residues stand in square brackets, D forms with d. No end group written: not given here. Orn = NCCC[C@H](N)C(=O)O; Aib = CC(C)(N)C(=O)O
# Target: T1, LCAT (Homo sapiens, UniProt P04180)
# T1 sequence (P04180 25-440): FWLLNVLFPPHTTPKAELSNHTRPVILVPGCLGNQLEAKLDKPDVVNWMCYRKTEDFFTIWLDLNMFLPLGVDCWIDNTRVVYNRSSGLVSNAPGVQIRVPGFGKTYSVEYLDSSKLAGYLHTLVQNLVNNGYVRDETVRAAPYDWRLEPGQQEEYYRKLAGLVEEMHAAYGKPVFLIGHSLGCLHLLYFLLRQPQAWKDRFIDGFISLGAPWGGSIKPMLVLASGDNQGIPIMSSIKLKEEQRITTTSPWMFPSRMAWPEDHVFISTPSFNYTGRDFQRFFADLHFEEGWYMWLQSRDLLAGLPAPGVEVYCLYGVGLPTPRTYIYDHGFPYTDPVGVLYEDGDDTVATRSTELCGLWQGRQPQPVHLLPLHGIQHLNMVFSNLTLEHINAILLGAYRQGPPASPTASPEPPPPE
row,Substance,ACTIVITY (%) LCAT
1,"GIKKFLGSIWKFIKAFVG [Peptide 242, 18L peptide (Degreat et al., 1990), reference compound]",7%
2,"GVLDLFRELLEELKQKLK* (not fully specified (N-terminus, C-terminus); printed as GVLDLFRELLEELKQKLK*) [Peptide 198]",80%
3,"PVLDLFRELLNELLQKLK* (not fully specified (N-terminus, C-terminus); printed as PVLDLFRELLNELLQKLK*) [Peptide 218]",29%
4,PVLDEFRELYNEXLEALKQKLK (PVLDEFRELYNE[Aib]LEALKQKLK; not fully specified (C-terminus)) [Peptide 92],5%
5,PVLDEFREKLNEXSEALKQKLK (PVLDEFREKLNE[Aib]SEALKQKLK; not fully specified (C-terminus)) [Peptide 112],0%
6,PVLELFENLLERLLEALQKKLK [Peptide 161],27%
7,"PVLDLFREWLEELKQKLK* (not fully specified (N-terminus, C-terminus); printed as PVLDLFREWLEELKQKLK*) [Peptide 205]",60%
8,PVLDEFREKLNEELEAXKQKLK (PVLDEFREKLNEELEA[Aib]KQKLK; not fully specified (C-terminus)) [Peptide 119],0%
9,pVLDLFRELLNELLEALKQKLKK ([dP]VLDLFRELLNELLEALKQKLKK; not fully specified (C-terminus); printed as pVLDLFRELLNELLEALKQKLKK) [Peptide 5],90%
10,"PLLDLFKELLEELKQKLK* (not fully specified (N-terminus, C-terminus); printed as PLLDLFKELLEELKQKLK*) [Peptide 201]",74%
11,PVLDLFRELLNELLEGLKQKLK [Peptide 22],54%
12,~VLDEFREKLNEXLEALKQKLK (VLDEFREKLNE[Aib]LEALKQKLK; not fully specified (C-terminus); printed as ~VLDEFREKLNEXLEALKQKLK) [Peptide 65],15%
13,PVLDEFREKLNEXMEALKQKLK (PVLDEFREKLNE[Aib]MEALKQKLK; not fully specified (C-terminus)) [Peptide 114],0%
14,LVLDLFRELLNELLEALKQKLK [Peptide 59],17%
15,PVLELFENLLERLLELLNKKLK [Peptide 175],13%
16,PVLDLFRELLNELLEALKQKKK [Peptide 56],18%
17,"PALELFKDLLEELRQKLR* (not fully specified (N-terminus, C-terminus); printed as PALELFKDLLEELRQKLR*) [Peptide 202]",70%
18,PVLDEFRWKLNEXLEALKQKLK (PVLDEFRWKLNE[Aib]LEALKQKLK; not fully specified (C-terminus)) [Peptide 61],16%
19,PVLELFENLLEKLLEALQKKLK [Peptide 182],7%
20,PVLDLFRELLNLXLEALKEKLK (PVLDLFRELLNL[Aib]LEALKEKLK; not fully specified (C-terminus)) [Peptide 102],2%
21,PVLDLFRELLNELLEALQKKLK [Peptide 24],53%
22,AVLELFENLLERLLDALQKKLK [Peptide 153],49%
23,PVLELFEQLLEKLLDALQKKLK [Peptide 168],17%
24,PVLDEFREKLNEELEALWQKLK [Peptide 121],0%
25,PVLDLFKELLQELLEALKQKLK [Peptide 11],72%

row,Substance,ACTIVITY (%) LCAT
1,PHLDEFREKLNEXLEALKQKLK (PHLDEFREKLNE[Aib]LEALKQKLK; not fully specified (C-terminus)) [Peptide 116],0%
2,PVLELFLNLLEKLLDALQKKLK [Peptide 166],22%
3,PVLDLFRELLNELWQKLK [Peptide 219],24%
4,"PVLDLFOELLEELOQOLK* (PVLDLF[Orn]ELLEEL[Orn]Q[Orn]LK; not fully specified (N-terminus, C-terminus); printed as PVLDLFOELLEELOQOLK*) [Peptide 212]",43%
5,PVLELFENLLERLLDLLQKKLK [Peptide 165],23%
6,PVLEFFENLLERLLDALQKKLK [Peptide 157],30%
7,PVLELFLNLLERLGDALQKKLK [Peptide 172],16%
8,PVLDLFRELGNELLEALKQKLK [Peptide 9],83%
9,PVLDAFRELAEALAQLKK [Peptide 225],1%
10,"PVLDLFRELLEEGKQKLK* (not fully specified (N-terminus, C-terminus); printed as PVLDLFRELLEEGKQKLK*) [Peptide 229]",0%
11,PVLDEFRELLNELLEALKQKLK [Peptide 79],9%
12,PVLDAFRELLEALLQLKK [Peptide 222],8%
13,PVLELFENLLEKLLDLLQKKLK [Peptide 171],16%
14,PVLELFENGLERLLDALQKKLK [Peptide 167],18%
15,PLLELFENLLERLLDALQKKLK [Peptide 150],57%
16,PVLDEFREKLNEXXEALKQKLK (PVLDEFREKLNE[Aib][Aib]EALKQKLK; not fully specified (C-terminus)) [Peptide 110],0%
17,PVLDLFREKLNEELEALKQKLK [Peptide 106],0%
18,PVFELFENLLERLLDALQKKLK [Peptide 152],50%
19,DWFKAFYDKVFEKFKEFF [Peptide 241],8%
20,GVLDLFRELLNEGLEALKQKLK [Peptide 13],67%
21,PVLDLFREKLNELLEALKQKLK [Peptide 33],33%
22,"PALELFKDLLEEFRQRLK* (not fully specified (N-terminus, C-terminus); printed as PALELFKDLLEEFRQRLK*) [Peptide 213]",42%
23,PVLELFENLLEKLLDALQKKLK [Peptide 169],17%
24,"PVLDFFRELLEELKQKLK* (not fully specified (N-terminus, C-terminus); printed as PVLDFFRELLEELKQKLK*) [Peptide 204]",63%
25,PVLDEFRELLNEELEALKQKAK (PVLDEFRELLNEELEALKQKLK) [Peptide 103],1%

row,Substance,ACTIVITY (%) LCAT
1,PVLDLFDNLLDRLLDLLNKKLK [Peptide 173],15%
2,VVLDLFRELLNELLEALKQKLK [Peptide 53],19%
3,DWFKAFYDKFFEKFKEFF [Peptide 247],3%
4,pVLDLFRELLNELLEALKQKLK [Peptide 21],57%
5,"PVLELLKELLEELKQKLK* (not fully specified (N-terminus, C-terminus); printed as PVLELLKELLEELKQKLK*) [Peptide 207]",50%
6,PVLDLFREGWEELKQKLK [Peptide 224],8%
7,GVLDLFRELLNELLEALKQKLK [Peptide 18],58%
8,PVLELFENLLERLLDALQOOLO (PVLELFENLLERLLDALQ[Orn][Orn]L[Orn]; not fully specified (C-terminus)) [Peptide 185],3%
9,PWLDEFREKLNEXLEALKQKLK (PWLDEFREKLNE[Aib]LEALKQKLK; not fully specified (C-terminus)) [Peptide 64],15%
10,PVLDLFRNLLEELLKALEQKLK [Peptide 57],18%
11,~~~DEFREKLNEXLEALKQKLK (DEFREKLNE[Aib]LEALKQKLK; not fully specified (C-terminus); printed as ~~~DEFREKLNEXLEALKQKLK) [Peptide 90],6%
12,PVLELFLNLWERLLDALQKKLK [Peptide 155],38%
13,~VLDLFRELLNEGLEALKQKLK [Peptide 47],23%
14,PVLDKFRELLNEXLEALKQKLK (PVLDKFRELLNE[Aib]LEALKQKLK) [Peptide 88],7%
15,PVLDEFREKLNKXLEALKQKLK (PVLDEFREKLNK[Aib]LEALKQKLK; not fully specified (C-terminus)) [Peptide 77],9%
16,PVLDFFREKLNEXLEALKQKLK (PVLDFFREKLNE[Aib]LEALKQKLK; not fully specified (C-terminus)) [Peptide 63],16%
17,pVLDLFRELLNEGLEALKQKLK ([dP]VLDLFRELLNEGLEALKQKLK; not fully specified (C-terminus); printed as pVLDLFRELLNEGLEALKQKLK) [Peptide 19],58%
18,"PALELFKDLLEELRQRLK* (not fully specified (N-terminus, C-terminus); printed as PALELFKDLLEELRQRLK*) [Peptide 208]",48%
19,PELDEFREKLNEXLEALKQKLK (PELDEFREKLNE[Aib]LEALKQKLK; not fully specified (C-terminus)) [Peptide 117],0%
20,PVLDLFRELLNEELEALKQKLK [Peptide 98],2%
21,PVLDLLRELLNELLEALKQKLK [Peptide 16],59%
22,GVLELFLNLLERLLDALQKKLK [Peptide 177],10%
23,PVLDLFRELLNELLEAGKQKLK [Peptide 12],70%
24,PVLELFDNLLERLLDALQKKLK [Peptide 179],8%
25,GVLDLFRELLNELLEALKQKLKK [Peptide 2],105%
